Assay results reported in the domain aggregation screens of Martell et al. (2025).

Assay: soluble fraction after stress (log2 fold change); higher = more stays soluble; pooled small domains, quantitative proteomics
Details: stress: 50 degC
Procedure, shortened: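 Pooled custom libraries of small protein domains were each held under stress at 50°C. The read-out, high-throughput quantitative proteomics, tracked how much of each protein stayed soluble. This is reported as a base-two log fold change used to indicate aggregation propensity. Higher values mean more protein remains in solution.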

Sequence | soluble fraction (log2)
HMPVEHVWHIAENGQTSGPYSKARMGRMAQEGQLTRDTHVWTPGQDGWMRAGDVTELAQLFT | 0.0486
HMPFTLDGVNEGSRNDQAARMSGYLISKNLNMDFIKFFMQSWNRQNSPPLSQREINSVVDNVKRTHDRKNK | -1.18
HMKIVFGHVKWFDIDKGFGFLVLEDEGGDVLLHANVLKNFGRTSVSEDTKIEFEFLETDKGRQVSTIYNIL | -3.85
HMKETERKILQAVLGLPLKYRDVIHLFYYEEMSVKEIAEVLHRQESTVTSQLTRARGILKKNL | 0.09
HMSVIETLLSDREREVLTHLVNGYDAKRIAEITGISTLTVRKHIANIYTKLHVNSKAQVISMAHKNKWF | -0.657
HMRQSIHTALQLLTPREEEVLNLLVSGKSNKQVAEHFSLSSKTIERHRSSVMRKLDASSFAQLVRIAALR | -3.51
HMISASDLQTYLKGMDYPARKEDLIVHAQRNNAPESVIAAIRQFSDRTYQSAADVSEEFGKI | 0.19
HMTAVVPNFKGKLISELSNFVADKNVRYTIIDSIYDPEEKSGIVIKQDPEEKTQVKHNRIIYLYVTST | -1.53
HMGVHSVVPDIKNKHYGEAKAILAANGLSIEISDSIYDRSVAPGTVVESWPKAGAIVKGDRAVFVTLTAF | -1.28
HMYNNGYVNSDRVNFRKGASTNSDIYKVLDKNTSVTILDYEGDWSKVKINDTVGYVYTKYITAG | 0.134
HMDAEWRTLTLAPEQHQQRLDRALADSLPEFSRSYVQQLIDTGMVRVNGVLAAKSAQRVKALDQVQVELR | -0.229
HMSIPVLKDGTYESWGNEKVYKVGDRVMVGSNGYVAKWWNQDETPEKAIINPNDSPWRPMTESEIMEVLK | -0.0154
HMSENDTILAKFVSVMGNKNLELVIFPDIAYLKGQVSNPEDKTKAETVAQSLLGGKPLVSLIEFE | 0.218
HMETFGLSQRELQILSQLHKGQPLKEFAASLFITESTLKTHLSAIYRKMSVKNRVQAIEKAKQSGL | -1.24
HMEALPSNLRRLRLEAQLTLDRLGALSGVSRAMISKIERGASVPTATMLGKLAAALQVSLSQLL | -0.97
HMIAVLKQGVSKQQVENLITWFRSRGLDVHISEGKFQTIIGLIGDTSKVDIDLLNGLEIIESVKRI | -0.0376
HMGRWQPSTSAKQHGESALLLERLLHLERLTVSEAFHVLTINHRLNLSLPEYRSLLAVVQLPK | -1.57
HMKITKIWFTADHIFGRDEEGKEYSQSLLWYPKLSAASDEERSQYTFGYDGIHWRSLDEDISFESF | -3.98
HMLMLTPGQVSNSLNVSTATVRRWSARFARHLSPQPPNRKRSYTPDDLATLARVRDLSASGTSLAQIDIAL | -2.51
HMDIYLDEVNRKILHLLSQGIKTRSLREYINLSMSAIEKRKKHMKELFLVEDGKDETLLNEARNKGF | -1.43
HMNPYLWQRVRLLFSNVGVINNSATVDLVFSAPKGVLTEDLANNFSAALVKKGKEELGLDDIKITISVIPN | -2.94
HMDNIKRGEMFYISRGGASYSGSEQHSDRPAVVVSNDKNNENSNVVEVVYMTTQPKTDLPTHVTVR | 0.0894
HMSSNLTVFTRNNAIIVNSDVVRKLNVFAVDGRLVRSVDLSVGENVINNISRGMYLIDKQKVVV | -0.353
HMENDGQFLRAEREKYGLTLTDIYEHTHIPIKKLKAYEMWEEEMPPRTRALLELYFDQVAFEYDS | -0.8
HMIDVNLVQRGKTLHLRRRVPMRYSSVERREYVSISLKTDSEAEARRKAGAAWDQMIAAWEARLA | -0.35

Sequence | soluble fraction (log2)
HMGKSKAAQSSLVRSIMHQISDKNRGPMPLSEIIDRASIQSIDEAIVRSLVSRMKEQGEIYEPSLGTYEF | -0.209
HMTEPKILTAEESQRLDLILVQQWPELGRRALRELVQQGGVRINGELALKAGQYVQAGERVEVAVP | 0.0571
HMDSAFVSDIRDAFDEAGVDSYRFFGTHSFKRGGVQLYRLLGVSDQEIKERGHWQTFSAYFAYVQA | 0.218
HMTGWINVDKNWYYMNNSGSMARGMINVNNVSYYLDENGKMLSNTTVNVNGTDYRIDASGAMSQI | -0.564
HMEKPTEITLSNRVSVQELAEKMYVSETDIIRTLFLDGRIININQVLDIDTAIRVGEQLGIKIKII | -0.496
HMSSIGERISDVRKARGYTQDQLAERIHVSRQTISHWENERALPDFESIKQLSQVLGYDFSS | -0.00328
HMFDFGNHLRMLREKHGISQEELGRRVGRAGSVISNYENNIKIPTLDVLTTMARIYDVSLDYLVG | -1.36
HMVNSIQIHKKLRLDKRAGSDNWYARLTLPNGKRLVKTTKTEDIETAKEVALRLYYEVDARIQNKLPAT | -1.45
HMESNDSNIEDDFYEGLKSMRKGDLKMSVVFFTRVIEKKPTFAEAWNRRATVYYMLGKFDKSMFDINETLK | -0.115
HMESDAIAAAIAALPARYREVLLLRYDNGFSYSEISKALDMTEAAVRKTVQRAKEALQRTLQIQEEDT | -0.471
HMGRELDLNQRVYDFIHDIADEVRTDEGTFSANQMMERFLFPGDLQSVPIGRLSGGERRRLYLLSVLMVKI | 0.117
HMGNNSIDIKDVIYNLVEISQLQAFDIVKHFKTWENLVNKPDELDTVIDGDSDIVDRIKYKIKSLS | 0.109
HMQISLDTKLINLEFSVRANNVFRENQIFTLRDLTSHSKEDLMLMTNFGKTTLYEVNKKLEEHQLKLSQ | -2.69
HMSKQVDVVIYILENTKAADNTYIGTYRKTADGAGVSLDTATKVMRKLQENNFIKKVQNGVYQISPLIMM | -0.889
HMSLTAQVFTDRGKVLLSENKFTEAIDQFTKALAMDKVYIEALNRRIEAYQHLGLTELAAKDEALLGTL | -0.755
HMSYPEIFQSLTEREQKIADMIAEHLSNKEIAEKMFLSEGTIKQYINQIYSKLQITGDIRNKRKQLIELFH | -1.16
HMADASVTAYFKIAEDRLQGRLPDTFSEASLKARYQLTPAQLTAVLTRIAQEGWAERKPGYGWAFSSML | -1.4
HMKELVEDFASRISNARQSKGWNQSELAKRMAETVNVVKSAESGKSPTDSVIKKLERVLGIILM | -0.591
HMDNPLSQQEKRILQLISLGKTNQEIADILYLSNGTVRNYISSILNKLSANNRVEAARIAEEHGW | -0.73
HMGRFPSLTPVVIDALTAQYREHPGWTVQLHVDNLRVVLAANQTPLPSYPTIRRYLLAQGMRRQTRP | -0.426
HMNNISKKIKELREQNNITQNKLANDLFIKQQTVAQWENGSRALKADSIISLAKYFNVSTDYLLGLTEN | -0.339
HMGSFDDAPDQLRQSILQLLAEGPLPPSAITERLNISREDATEALQQLLDEQRIFAVNGMLQLQPG | -0.0107
HMVKNLRKLREELGLTQQRLAELTGISKSRIYSYESLDREPDIAGLITLADFFSVSIDYLVGK | -1.78
HMQAPHLALSPREFQVLQGLLAGDALDIIAERLHLSAKTVSNHQTLIRQKLGVGNAVELLRYAQLHRL | -2.15
HMNTLTKEDIQKAIDVIPIDFKSVVILNLVEGFSYKETAEILEIPIGTVMSRLHRGRKILQKLLWEYSSSK | -1.32

Sequence | soluble fraction (log2)
HMSAEVSEIEIQRIISYYRNQNGVPDKYNEIFDRIAAQYTDEQLKVISNFLPSDVKQYLSFNNEKYKSLG | -0.295
HMDDIVPHSTKNHIIKTFLSLMNSLDIITDKNKKSLNQNVHIIFNKFNFSKKEANLFIGVLNRIQKALK | 0.552
HMINVLTPKQIEATTIAVKYGYYENPRTVSMRELSEISGIARSTLQEHLSKAEAALMILAAKSQL | -0.338
HMPGSGELSRRLELAIRDRTAVRVTAAAAGQERSFTLLPVAITSGRLRATDEQAGVQRTLPLSAIVAVEA | -0.0911
HMNIDEIIGKKAVVIESIDNLQGTGKVRYQGMEWTARAEEENDRIEKDAEVEIIAVKGVKLIVKMK | -0.13
HMAVANEAIANINMKEVKQAIHNLPEIFKNPFLLYFDGYKYHEIAEMLDEPLGTIKSRIHFARKLLKSHI | -0.674
HMYKDVVVPNTVGDSEEKAYQTLSALGLVVNITYDEDASKSDRVVTSQNPTNKTIKEGESVNIVVNKQP | 0.0711
HMERLLVSKINGMITEAKVSVEDVVKVVASRGHYPEVKSIDEYPDDFLSRWVVPNFKKIVEMINANKEA | 0.187
HMASSVKAPLPGVILDIKVKVGDTIKNGDTVVILEAMKMENNIHSDKDGVVKSIEVNKGDSVLEGATLLTI | -0.0654
HMDPEEETLKNMQRMLQDSGPLKKTEFSLLAKSLGIAEKKARKLIDRGRGRFWTVESGEQKNTQLVTPIQ | -0.0247
HMEAEGLDFAPMPGEIGKKLWQEVSKEAWAGWLKHQTMLVNENRLSFVDPAARKYLTEQTEAYFFG | 0.131
HMSTKYSSNIISLVKGLMEEDQYKDLMGPPLKKEIIKKVESITDTFPYKFDKDDKEFIVKKVLISLRK | -1.29
HMQETALANFETNEGVQKVKQYVQENVPSLRGSNIVGVWTSYTPEGLTNYRTRFLTQDGQFVEVNLAYQ | 0.036
HMATTAGIEKYLGSGLIKGIGPIYAKKIVRKFKEDTIRIIDEEPDRLLEVEGIGQKRLEIIKQAWQQQKE | -0.391
HMIPDGKWKEDPISDGQKNFINSLIEQAIDAGQDELGAEAKKYLASGEATKGNASAMIDKLKSAL | 0.392
HMGEPTLTIRVVSYNPQSGEMVVVARDPLSGRYALATLNVRTGAGQMIGPQGELLPIENFALGS | -0.985
HMKTAWDELNEVIEAYRGQESALIEVLHKAQEIMGYLPRDVQEAIAEGLHVPLNKVYGVVSFYHHFSV | 0.178
HMATKEQIKRIYGLGAGLGIVGKDKDDMLHELIFSITGKDSVKQLDDSEFKAVQAELINRMKLA | 0.132
HMNDVLVGAIPESASGSRLDKVMPSVFPPYSRSQLQVWLKQGRILMGNGIPSPRLIVSGGEVLSLVVPELP | -0.971
HMLDEKFLSELMLALLRNHRRGLRAEVLLHKVRSNMELDGYKSLLVGVGRMEMWELAREIIDFVKAEG | -4.4
HMGNQALSSVLSDIAGIGPVKTKELLRVYPDLDSLRQAPVEEVAKVKGIGRQLAQKIHDHFSSR | 0.189
HMKTPIEFGSVYNDPVRYVIGMSIKSAESINQAIYDMMKIFGDENNMNKFDSLPDEQAVLDMVNSF | 0.0157
HMRDKTMLGNVIRTRRKKMNLTLEELSKQVGITSGGLSQIERGLVDPSLSVLRRISRALNLPMNVMFSE | -0.281
HMYVVLYPGMARDEAVQVMNELQSRGIDYYEKNGNIYVPKTDENSLRMELANLGYPKTTNNYD | 0.0519
HMDPTIRRGELIDAASRLFLSKGYAATSVRDILDEVGNRTASPSVFYYYFKSKEEIYQAVLRRHSE | -0.847
